One substance from paper PMC5082641 can be followed below.

Assay [1] deals with SpyTag-EGFP-SdyTag (Streptococcus pyogenes | Streptococcus dysgalactiae). Description: covalent ligation read by SDS-PAGE and densitometry; step-wise reaction of dual-Tag constructs with SpyCatcher, 5 and 30 minutes; at 5 minutes aliquots given additional SpyCatcher or SdyCatcher DANG short for a further 25 minutes.
Assay [2] has as its target SdyTag-EGFP (Streptococcus dysgalactiae). Briefly: kinetics of covalent ligation by SDS-PAGE and densitometry; equimolar Catcher and Tag-EGFP (10 uM for SpyTag-EGFP; 50 uM for SdyTag-EGFP by S3 and S4 Figs), 100 uM sodium phosphate buffer pH 7, 25°C; second order rate constants from Catcher depletion; triplicates.
The target of assay [3] is SpyTag-EGFP (Streptococcus pyogenes). Described as above.
Assay [4] addresses SdyTag-EGFP (Streptococcus dysgalactiae). Briefly: covalent ligation read by SDS-PAGE and densitometry; 50 uM Catcher with 65 uM SdyTag-EGFP (1.3 equivalents), 100 uM sodium phosphate buffer pH 7, 25°C, 40 minutes; quenched with SDS-PAGE loading buffer and boiled; yield with respect to the limiting Catcher; triplicates.

Consider SpyCatcher (domain or fragment), for which, in assay [1], the percent of products ligated twice is < 10%. The results for the second order rate constant of covalent ligation in assay [2] and in assay [3] were 1 M⁻¹ s⁻¹ and 322 M⁻¹ s⁻¹, respectively. Besides, the yield of ligated product after 40 minutes in assay [4] is 7%.
